Where a chain is given by its changes, count along the chain named.
B1: CD3_2 (antibody, human IgG1, lambda)
heavy: EVQLVESGGGLVQPGGSLKLSCAASGFTFNTYAMNWVRQASGKGLEWVGRIRSKYNNYATYYADSVKDRFTISRDDSKSTLYLQMNSLKTEDTAVYYCVRHGNFGNSYVSWFAYWGQGTLVTVSSASTKGPSVFPLAPSSKSTSGGTAALGCLVKDYFPEPVTVSWNSGALTSGVHTFPAVLQSSGLYSLSSVVTVPSSSLGTQTYICNVNHKPSNTKVDKRVEPKSCDKTHTCPPCPAPELCCHPSVFLFPPKPKDTLMISRTPEVTCVVVGLRHEDPEVKFNWYVDGVEVHNAKTKPREEQYCGCYRVVSVLTVLHQDWLNGKEYKCKVSNKALPAPIEKTISKAKGQPREPQVYTLPPSRDELTKNQVSLTCLVKGFYPSDIAVEWESNGQPENNYKTTPPVLDSDGSFFLYSKLTVDKSRWQQGNVFSCSVMHEALHNHYTQKSLSLSPGK
light: QAVVTQEPSLTVSPGGTVTLTCRSSTGAVTTSNYANWVQQKPGQAPRGLIGGTNKRAPWTPARFSGSLLGDKAALTLSGAQPEDEAEYFCALWYSNLWVFGGGTKLTVLGQPKAAPSVTLFPPSSEELQANKATLVCLISDFYPGAVTVAWKADSSPVKAGVETTTPSKQSNNKYAASSYLSLTPEQWKSHRSYSCQVTHEGSTVEKTVAPTECS
B2: CD3_2_YTE (antibody, human IgG1, lambda)
heavy: B1 heavy with M260Y, S262T, T264E
light: B1 light
B3: CD3_3 (antibody, human IgG1, lambda)
heavy: B1 heavy with V272T, H276D
light: B1 light
B4: CD3_3_YTE (antibody, human IgG1, lambda)
heavy: B1 heavy with M260Y, S262T, T264E, V272T, H276D
light: B1 light
B5: CD3_4 (antibody, human IgG1, lambda)
heavy: B1 heavy with G273D, L274V, R275S
light: B1 light
B6: CD3_4_YTE (antibody, human IgG1, lambda)
heavy: B1 heavy with M260Y, S262T, T264E, G273D, L274V, R275S
light: B1 light
B7: CD3_5 (antibody, human IgG1, lambda)
heavy: B1 heavy with H245G, G273D, L274V, R275S, G306S
light: B1 light
B8: CD3_5_YTE (antibody, human IgG1, lambda)
heavy: B1 heavy with H245G, M260Y, S262T, T264E, G273D, L274V, R275S, G306S
light: B1 light
B9: CD3_DANAPA_YTE (antibody, human IgG1, lambda, N297A)
heavy: EVQLVESGGGLVQPGGSLKLSCAASGFTFNTYAMNWVRQASGKGLEWVGRIRSKYNNYATYYADSVKDRFTISRDDSKSTLYLQMNSLKTEDTAVYYCVRHGNFGNSYVSWFAYWGQGTLVTVSSASTKGPSVFPLAPSSKSTSGGTAALGCLVKDYFPEPVTVSWNSGALTSGVHTFPAVLQSSGLYSLSSVVTVPSSSLGTQTYICNVNHKPSNTKVDKRVEPKSCDKTHTCPPCPAPELLGGPSVFLFPPKPKDTLYITREPEVTCVVVAVSHEDPEVKFNWYVDGVEVHNAKTKPREEQYASTYRVVSVLTVLHQDWLNGKEYKCKVSNKALAAPIEKTISKAKGQPREPQVYTLPPSRDELTKNQVSLTCLVKGFYPSDIAVEWESNGQPENNYKTTPPVLDSDGSFFLYSKLTVDKSRWQQGNVFSCSVMHEALHNHYTQKSLSLSPGK
light: B1 light
B10: CD3_1 (antibody, human IgG1, lambda)
heavy: B1 heavy with S247R, V272T, H276D, R309S
light: B1 light
B11: IgG4_CD3_WT_YTE (antibody)
heavy: EVQLVESGGGLVQPGGSLKLSCAASGFTFNTYAMNWVRQASGKGLEWVGRIRSKYNNYATYYADSVKDRFTISRDDSKSTLYLQMNSLKTEDTAVYYCVRHGNFGNSYVSWFAYWGQGTLVTVSSASTKGPSVFPLAPCSRSTSESTAALGCLVKDYFPEPVTVSWNSGALTSGVHTFPAVLQSSGLYSLSSVVTVPSSSLGTKTYTCNVDHKPSNTKVDKRVESKYGPPCPSCPAPEFLGGPSVFLFPPKPKDTLYITREPEVTCVVVDVSQEDPEVQFNWYVDGVEVHNAKTKPREEQFNSTYRVVSVLTVLHQDWLNGKEYKCKVSNKGLPSSIEKTISKAKGQPREPQVYTLPPSQEEMTKNQVSLTCLVKGFYPSDIAVEWESNGQPENNYKTTPPVLDSDGSFFLYSRLTVDKSRWQEGNVFSCSVMHEALHNHYTQKSLSLSL
light: B1 light
B12: CD3_1_YTE (antibody, human IgG1, lambda)
heavy: B1 heavy with S247R, M260Y, S262T, T264E, V272T, H276D, R309S
light: B1 light
B13: IgG4_CD3_S228P_YTE (antibody)
heavy: B11 heavy with S233P
light: B1 light
B14: IgG4_CD3_6 (antibody)
heavy: B11 heavy with L240C, G241C, Y257M, T259S, E261T
light: B1 light
B15: IgG4_CD3_6_YTE (antibody)
heavy: B11 heavy with L240C, G241C
light: B1 light
B16: IgG4_CD3_8 (antibody)
heavy: B11 heavy with G241C, Y257M, T259S, E261T
light: B1 light
B17: IgG4_CD3_8_YTE (antibody)
heavy: B11 heavy with G241C
light: B1 light
B18: IgG4_CD3_9_YTE (antibody)
heavy: B11 heavy with L240C
light: B1 light

How the values were obtained:
[1] = target: hC1q (human) (UniProt P02745); assay: SPR Biacore T200; IgG amine-coupled on CM5, hC1q as analyte; response normalized to parental (=100)
Sequence of hC1q (human) (P02745 23-245 limits assumed, chain 1 of 3): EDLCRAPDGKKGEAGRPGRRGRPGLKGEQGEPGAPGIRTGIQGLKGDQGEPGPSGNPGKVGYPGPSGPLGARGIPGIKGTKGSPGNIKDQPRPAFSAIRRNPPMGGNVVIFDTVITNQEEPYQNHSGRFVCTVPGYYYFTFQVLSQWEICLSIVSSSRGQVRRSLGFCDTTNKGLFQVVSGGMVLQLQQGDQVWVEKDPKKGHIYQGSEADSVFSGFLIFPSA
Sequence of hC1q (human) (P02746 28-253 limits assumed, chain 2 of 3, further chain): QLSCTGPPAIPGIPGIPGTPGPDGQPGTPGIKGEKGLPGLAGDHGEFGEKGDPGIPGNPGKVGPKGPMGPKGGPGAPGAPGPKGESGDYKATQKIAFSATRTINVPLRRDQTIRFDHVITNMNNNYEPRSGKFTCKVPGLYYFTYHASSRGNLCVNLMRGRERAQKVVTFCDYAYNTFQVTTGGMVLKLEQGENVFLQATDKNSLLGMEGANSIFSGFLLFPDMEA
Sequence of hC1q (human) (P02747 29-245 limits assumed, chain 3 of 3, further chain): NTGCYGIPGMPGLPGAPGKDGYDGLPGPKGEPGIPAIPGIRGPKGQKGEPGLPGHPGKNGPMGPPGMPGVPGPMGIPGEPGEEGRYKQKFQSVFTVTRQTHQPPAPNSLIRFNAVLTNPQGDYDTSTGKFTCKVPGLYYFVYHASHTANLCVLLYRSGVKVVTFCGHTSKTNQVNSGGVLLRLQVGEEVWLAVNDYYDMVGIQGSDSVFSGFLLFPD

[2] = target: Gamma receptors FcγRI, FcγRII, and FcγRIII expressed on THP-1 cells; assay: cell-based or functional assay

Binder	Maximum response at 20 nM hC1q (RU) [1] [RU]	Maximum response in RGA assay (LU) [2] [LU]
B1	7	25500
B2	–	11900
B3	7	23200
B4	–	13100
B5	9	24900
B6	–	16500
B7	–	19900
B8	–	13100
B9	–	12300
B10	–	24700
B11	–	31800
B12	–	12000
B13	–	34900
B14	–	12000
B15	–	7910
B16	–	7040
B17	–	6450
B18	–	5610
